# The Human Domainome abundance scans (Beltran et al. 2025)
# ± gives the uncertainty stated by the source.
# B1: Nucleolar transcription factor 1, residues 408 to 469; numbered along this chain, P17480 (parent)
# chain: KRPVSAMFIFSEEKRRQLQEERPELSESELTRLLARMWNDLSEKKKAKYKAREAALKAQSER
# Variants of: B1
# Experiment: abundance fitness (aPCA) (normalised: wild type 0, dead -1); higher = more abundant; growth selection in yeast, the domain comes from the species named
# Settings: Homo sapiens
row,Variant,abundance fitness
1,KRPVSAMFIFSEEKRRQLQEERPELSESELTRLLARMWNDLSEKKKAKYKARGAALKAQSER [E53G],-0.142 ± 0.081
2,KRPVSAMFIFSEEKRRQLQEERPELSESELTRLLARMWNDLSEKKKAKYKARHAALKAQSER [E53H],-0.152 ± 0.091
3,KRPVSAMFIFSEEKRRQLQEERPELSESELTRLLARMWNDLSEKKKAKYKARIAALKAQSER [E53I],-0.356 ± 0.15
4,KRPVSAMFIFSEEKRRQLQEERPELSESELTRLLARMWNDLSEKKKAKYKARKAALKAQSER [E53K],-0.366 ± 0.083
5,KRPVSAMFIFSEEKRRQLQEERPELSESELTRLLARMWNDLSEKKKAKYKARLAALKAQSER [E53L],-0.183 ± 0.056
6,KRPVSAMFIFSEEKRRQLQEERPELSESELTRLLARMWNDLSEKKKAKYKARMAALKAQSER [E53M],-0.164 ± 0.07
7,KRPVSAMFIFSEEKRRQLQEERPELSESELTRLLARMWNDLSEKKKAKYKARNAALKAQSER [E53N],-0.37 ± 0.36
8,KRPVSAMFIFSEEKRRQLQEERPELSESELTRLLARMWNDLSEKKKAKYKARQAALKAQSER [E53Q],-0.146 ± 0.074
9,KRPVSAMFIFSEEKRRQLQEERPELSESELTRLLARMWNDLSEKKKAKYKARRAALKAQSER [E53R],-0.389 ± 0.051
10,KRPVSAMFIFSEEKRRQLQEERPELSESELTRLLARMWNDLSEKKKAKYKARSAALKAQSER [E53S],-0.13 ± 0.056
11,KRPVSAMFIFSEEKRRQLQEERPELSESELTRLLARMWNDLSEKKKAKYKARTAALKAQSER [E53T],-0.211 ± 0.064
12,KRPVSAMFIFSEEKRRQLQEERPELSESELTRLLARMWNDLSEKKKAKYKARVAALKAQSER [E53V],-0.078 ± 0.051
13,KRPVSAMFIFSEEKRRQLQEERPELSESELTRLLARMWNDLSEKKKAKYKARWAALKAQSER [E53W],-0.133 ± 0.074
14,KRPVSAMFIFSEEKRRQLQEERPELSESELTRLLARMWNDLSEKKKAKYKARYAALKAQSER [E53Y],-0.122 ± 0.091
15,KRPVSAMFIFSEEKRRQLQEERPELSESELTRLLARMWNDLSEKKKAKYKARECALKAQSER [A54C],-0.051 ± 0.1
16,KRPVSAMFIFSEEKRRQLQEERPELSESELTRLLARMWNDLSEKKKAKYKAREDALKAQSER [A54D],0.006 ± 0.13
17,KRPVSAMFIFSEEKRRQLQEERPELSESELTRLLARMWNDLSEKKKAKYKAREEALKAQSER [A54E],-0.063 ± 0.088
18,KRPVSAMFIFSEEKRRQLQEERPELSESELTRLLARMWNDLSEKKKAKYKAREFALKAQSER [A54F],-0.181 ± 0.089
19,KRPVSAMFIFSEEKRRQLQEERPELSESELTRLLARMWNDLSEKKKAKYKAREHALKAQSER [A54H],-0.014 ± 0.13
20,KRPVSAMFIFSEEKRRQLQEERPELSESELTRLLARMWNDLSEKKKAKYKAREIALKAQSER [A54I],-0.142 ± 0.084
21,KRPVSAMFIFSEEKRRQLQEERPELSESELTRLLARMWNDLSEKKKAKYKAREKALKAQSER [A54K],-0.014 ± 0.054
22,KRPVSAMFIFSEEKRRQLQEERPELSESELTRLLARMWNDLSEKKKAKYKARELALKAQSER [A54L],-0.056 ± 0.047

row,Variant,abundance fitness
1,KRPVSAMFIFSEEKRRQLQEERPELSESELTRLLARMWNDLSEKKKAKYKAREMALKAQSER [A54M],-0.098 ± 0.084
2,KRPVSAMFIFSEEKRRQLQEERPELSESELTRLLARMWNDLSEKKKAKYKARENALKAQSER [A54N],-0.033 ± 0.099
3,KRPVSAMFIFSEEKRRQLQEERPELSESELTRLLARMWNDLSEKKKAKYKAREPALKAQSER [A54P],-0.267 ± 0.075
4,KRPVSAMFIFSEEKRRQLQEERPELSESELTRLLARMWNDLSEKKKAKYKAREQALKAQSER [A54Q],-0.102 ± 0.068
5,KRPVSAMFIFSEEKRRQLQEERPELSESELTRLLARMWNDLSEKKKAKYKARERALKAQSER [A54R],-0.031 ± 0.037
6,KRPVSAMFIFSEEKRRQLQEERPELSESELTRLLARMWNDLSEKKKAKYKARESALKAQSER [A54S],-0.071 ± 0.059
7,KRPVSAMFIFSEEKRRQLQEERPELSESELTRLLARMWNDLSEKKKAKYKARETALKAQSER [A54T],-0.04 ± 0.054
8,KRPVSAMFIFSEEKRRQLQEERPELSESELTRLLARMWNDLSEKKKAKYKAREVALKAQSER [A54V],-0.003 ± 0.052
9,KRPVSAMFIFSEEKRRQLQEERPELSESELTRLLARMWNDLSEKKKAKYKAREWALKAQSER [A54W],-0.199 ± 0.059
10,KRPVSAMFIFSEEKRRQLQEERPELSESELTRLLARMWNDLSEKKKAKYKAREYALKAQSER [A54Y],-0.075 ± 0.075
11,KRPVSAMFIFSEEKRRQLQEERPELSESELTRLLARMWNDLSEKKKAKYKAREACLKAQSER [A55C],-0.028 ± 0.08
12,KRPVSAMFIFSEEKRRQLQEERPELSESELTRLLARMWNDLSEKKKAKYKAREADLKAQSER [A55D],-0.039 ± 0.12
13,KRPVSAMFIFSEEKRRQLQEERPELSESELTRLLARMWNDLSEKKKAKYKAREAELKAQSER [A55E],0.058 ± 0.073
14,KRPVSAMFIFSEEKRRQLQEERPELSESELTRLLARMWNDLSEKKKAKYKAREAFLKAQSER [A55F],0.059 ± 0.17
15,KRPVSAMFIFSEEKRRQLQEERPELSESELTRLLARMWNDLSEKKKAKYKAREAGLKAQSER [A55G],-0.046 ± 0.072
16,KRPVSAMFIFSEEKRRQLQEERPELSESELTRLLARMWNDLSEKKKAKYKAREAHLKAQSER [A55H],0.003 ± 0.17
17,KRPVSAMFIFSEEKRRQLQEERPELSESELTRLLARMWNDLSEKKKAKYKAREAILKAQSER [A55I],-0.126 ± 0.1
18,KRPVSAMFIFSEEKRRQLQEERPELSESELTRLLARMWNDLSEKKKAKYKAREAKLKAQSER [A55K],-0.054 ± 0.087
19,KRPVSAMFIFSEEKRRQLQEERPELSESELTRLLARMWNDLSEKKKAKYKAREAMLKAQSER [A55M],-0.047 ± 0.091
20,KRPVSAMFIFSEEKRRQLQEERPELSESELTRLLARMWNDLSEKKKAKYKAREANLKAQSER [A55N],-0.141 ± 0.18
21,KRPVSAMFIFSEEKRRQLQEERPELSESELTRLLARMWNDLSEKKKAKYKAREAPLKAQSER [A55P],-0.132 ± 0.093
